This is an account of results in patent publication US5587468, “High affinity nucleic acid ligands to HIV integrase” (University Research Corporation).

Data set [1] has as its target T1, HIV-1 integrase (Human immunodeficiency virus 1 (BH10), UniProt P03366 P03366:1160-1447). As to the kind of experiment: FP filter; binding completely abolished. Conditions: tags: gift of Agouron Pharmaceuticals; BH10 clone.
In data set [2] the target is T1, HIV-1 integrase. Kind of data set: FP filter; nitrocellulose filter; 250 mM NaCl, 10 mM MnCl2, pH 7.5, 37 C. Conditions: tags: gift of Agouron Pharmaceuticals; BH10 clone; stem-loops with GNRA tetraloop and putative pseudoknot (11-14 with 28-31). The method, then: (§1) Binding assays were done by adding 5 µl of HIV-1 integrase protein, at the appropriate concentrations (i.e., ranging from 2 ×10^-6 with 3 fold dilutions to 9 ×10^-9 for 250 mM NaCl and 0.5 ×10^-7 with 3 fold dilutions to 2 ×10^-10 for 50 mM NaCl), to 45 µl of binding buffer (50 mM Na-HEPES pH 7.5, 250 mM NaCl, 2 mM DTT, 10 mM MnCl_2, 5 mM CHAPS) on ice, then adding 50,000 cpm of kinased RNA (<200 fmoles) in a volume of 3 to 4 µl. This mix is incubated at 37° C. for 20 minutes. The reactions were then passed over nitrocellulose filters, which were pre-equilibrated in buffer, and washed with a 50 mM Tris-Cl pH 7.5 solution. Filters were dried and counted in cocktail. The proteins used in these experiments were frozen and thawed only once. Each binding curve consisted of seven points and each point is an average since experiments were done in triplicate.

Data set [3] deals with T1, HIV-1 integrase. As to the kind of experiment: competition; inhibits binding of con+/- U5 DNA, 180 mM NaCl. Conditions: tags: gift of Agouron Pharmaceuticals; BH10 clone; stem-loops with GNRA tetraloop and putative pseudoknot (11-14 with 28-31).
Method: 50 nM integrase was mixed with 20 nM double-stranded con± which mimics the U5 region of the HIV genome and incubated at 37° C. for 5 minutes. After this time, varying amounts of P5 or 30N RNA (i.e., random pool RNA) was added and the reaction mix (30 µl final volume) was incubated further for 20 minutes. The reactions were then placed at room temperature and passed over nitrocellulose filters. Filters were washed three times with 1 ml of 50 mM Tris-Cl pH 7.5. Filters were dried under a heat lamp and counted in a cocktail for 1 minute each. In the absence of RNA under these conditions, approximately 10% of the double-stranded DNA was retained on filter.
Data set [4] addresses T1, HIV-1 integrase. As to the kind of experiment: FP filter; nitrocellulose filter; 50 mM NaCl. The conditions noted are these: tags: gift of Agouron Pharmaceuticals; BH10 clone; stem-loops with GNRA tetraloop and putative pseudoknot (11-14 with 28-31). The protocol:
as §1

Data set [5] deals with T1, HIV-1 integrase. As to the kind of experiment: FP filter; nitrocellulose filter; 250 mM NaCl. Conditions: tags: gift of Agouron Pharmaceuticals; BH10 clone. The method, then:
as §1

In data set [6] the target is T1, HIV-1 integrase. Kind of data set: FP filter; deletion had no noticeable effect on binding. Conditions: tags: gift of Agouron Pharmaceuticals; BH10 clone.

B1: P5 deletion of 1-14 (ssRNA)
RNA: AACGCUCAACCAGUCUUGUGGCUUUGAAAGAGAGGAGUGUUCGACAUGAGGCCCGGAUCCGGC
Consider B1, for which, in the data set with HIV-1 integrase [1], the binding result is reported as “no binding”.

B2: P5 (ssRNA)
RNA: GGGAGCUCAGAAUAAACGCUCAACCAGUCUUGUGGCUUUGAAAGAGAGGAGUGUUCGACAUGAGGCCCGGAUCCGGC
In the case of B2, the figures for the Kd in the data set with HIV-1 integrase [2] and in the data set with HIV-1 integrase [4] were 12 nM and 2 nM, respectively. This molecule displayed a concentration for half-maximal inhibition (IC50) with HIV-1 integrase [3] of 6 nM.

B3: P23 (ssRNA)
RNA: GGGAGCUCAGAAUAAACGCUCAACCAGUCUUAUGGCGUUGCAAGAUAGGGGCGUUCGACAUGAGGCCCGGAUCCGGC
With B3, the Kd with HIV-1 integrase [5] was found to be 25 nM.

B4: P5 truncate lacking 1-6 and 64-77 (ssRNA)
RNA: UCAGAAUAAACGCUCAACCAGUCUUGUGGCUUUGAAAGAGAGGAGUGUUCGACAUGA
On to B4, for which the binding result in the data set with HIV-1 integrase [6] is “binds”.

B5: P5 deletion of 56-77 (ssRNA)
RNA: GGGAGCUCAGAAUAAACGCUCAACCAGUCUUGUGGCUUUGAAAGAGAGGAGUGUU
Regarding B5, the binding result in the data set with HIV-1 integrase [1] is reported as “no binding”.
